# Assay results taken from article PMC2654124 (The Journal of Cell Biology, 2009).
# B1: Ugo1 (natural protein)
# chain: MNNNNVTEATSRAQIRPYYDPDSFNAGYSAVFKPDEGVVDPHGYTIASKLNVINSSPTTKRMANALFKSSPMKKLSNSVNDGLSLEGSNGEITGLNNFEWAELVNIQKWRKIFEQLLDMFFRKYFQLLIQQPFDVARLLIQVGEFKIFKTTVDTNKPQAPIILRDEEGDGAAREGEEDAYDEEEIDFFPIERKIAEANSTAPIMAEETDHSHHEPTDISLTIAPQSLHTIDVINALFDQEGIRGLWKANNTTFIYNFLSLSIDTWFTGLLSSFLGVPDPYFMEVINSPDISKSFILALGAGVFTSIILLPVDLIRTRLIVTSFKKKKNVKTDGKNMVTNTRSLRQLIRCWSWRKNGVSIPLDMWSLTILQSINNSFFNKLFDLVIYNQFHIEKYSQTVMYNTMKFFSKSLELFIKLPLENLLRRCQLNYLLNDQRLSFKVDSTELIVKPKKYNGIWDVIRNNSNTNRGQLWNGWKVGVISLICGYGLQMMNKVDINMEQEKF
# Molecular target: the molecule itself
# Assay: native gel or EMSA
protein,measurement,value
B1,stoichiometry N,2
